Here are results for three molecules from US20060035359A1 (BURNHAM INSTITUTE, published 2006).

The target of one data set is His-CKS1 (UniProt P61024).
Data set [1] addresses T1, 35S-labeled in vitro translated (IVT) SBP1 protein (human, UniProt Q8N5L8 1-163, 35S label).
T1 construct: Translated in reticulocyte lysate from the full-length SBP1 cDNA; The two differ only at the C-terminal residues; also called full-length SBP1; human SBP1
T1 sequence: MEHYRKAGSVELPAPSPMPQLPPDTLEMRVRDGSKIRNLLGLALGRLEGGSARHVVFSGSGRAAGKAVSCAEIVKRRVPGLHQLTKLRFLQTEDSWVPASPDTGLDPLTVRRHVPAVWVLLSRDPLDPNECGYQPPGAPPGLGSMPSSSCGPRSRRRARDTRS
As to the kind of experiment: GST pull-down of 35S-labeled IVT SBP1, SDS-PAGE and fluorography. Here is the method:
cDNAs encoding wild type Survivin or Survivin T34E was cloned into the EcoRI and XhoI sites of pGEX-4T-1 (Amersham-Pharmacia, Sweden), expressed in XL-1-blue cells (Stratagene, Inc., La Jolla, Calif.), and affinity-purified using glutathione-Sepharose, using methods essentially as described in (Xie et al., 1998, Biochemistry, 37:6410-6418). A GST-CD40 fusion protein was included as a negative control. Purified GST-fusion proteins (0.5-1.0 μg immobilized on 10-20 μl of glutathione beads) and 2.5 μl of […] reticulocyte lysates (TNT-Lysates; Promega, Inc., Madison, Wis.) containing ³⁵S-labeled in vitro translated (IVT) SBP1 protein were incubated in […] of HKMEN (10 mM HEPES [pH 7.2], 142 mM KCl, 5 mM MgCl₂, 2 mM EGTA, 0.1% NP-40) at 4° C. for 30 minutes. The beads were washed 3× with 1 ml HKMEN solution to remove unbound ³⁵S-labeled IVT SBP1 protein, followed by boiling in 25 μl of Laemmli-SDS sample buffer to release and denature SBP1 bound to the matrix-bound GST-fusion protein. The eluted proteins were analyzed by SDS-PAGE (12%) and detected by fluorography.

Data set [2] has as its target T2, fusion protein of the B42 trans-activation domain fused to pro-caspase-9 (UniProt P55211 1-416).
T2 sequence (looked up): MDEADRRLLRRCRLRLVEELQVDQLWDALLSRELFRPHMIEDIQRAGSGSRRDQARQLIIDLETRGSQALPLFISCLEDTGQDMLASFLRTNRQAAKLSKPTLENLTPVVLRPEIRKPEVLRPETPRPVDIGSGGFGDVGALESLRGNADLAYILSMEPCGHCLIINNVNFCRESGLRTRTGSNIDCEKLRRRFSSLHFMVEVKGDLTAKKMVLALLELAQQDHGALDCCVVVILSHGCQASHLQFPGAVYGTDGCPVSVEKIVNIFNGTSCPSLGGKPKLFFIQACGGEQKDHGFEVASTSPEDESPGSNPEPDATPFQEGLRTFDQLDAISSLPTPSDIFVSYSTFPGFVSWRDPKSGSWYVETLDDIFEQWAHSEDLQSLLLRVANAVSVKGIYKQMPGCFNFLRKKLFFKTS
As to the kind of experiment: yeast two-hybrid, LEU2 growth and beta-galactosidase filter assay. Here is the method: (§1) A plasmid (1 μg DNA) encoding a fusion protein of the LexA DNA-binding domain appended to the N-terminus of SBP1 was co-transformed into yeast strain EGY48 with […] of pJG4-5 plasmid encoding fusion proteins of the B42 trans-activation domain fused to Survivin, Survivin T34E, Bcl-2, pro-caspase-9, XIAP, Bax, or Apaf-1. Bcl-2, pro-caspase-9, XIAP, Bax, and Apaf-1 are other […]. […] Only the Survivin T34E scored positive for leucine and β-galactosidase activity, wild type Survivin, Bcl-2, caspase-9, XIAP, Bax and Apaf-1 scored negative under the conditions.

The target of data set [3] is fusion protein of the B42 trans-activation domain fused to XIAP (UniProt P98170 1-497). The data set is described as above. The method, then: as §1
Data set [4] deals with T3, fusion protein of the B42 trans-activation domain fused to Apaf-1 (UniProt O14727 1-1248).
T3 sequence (looked up): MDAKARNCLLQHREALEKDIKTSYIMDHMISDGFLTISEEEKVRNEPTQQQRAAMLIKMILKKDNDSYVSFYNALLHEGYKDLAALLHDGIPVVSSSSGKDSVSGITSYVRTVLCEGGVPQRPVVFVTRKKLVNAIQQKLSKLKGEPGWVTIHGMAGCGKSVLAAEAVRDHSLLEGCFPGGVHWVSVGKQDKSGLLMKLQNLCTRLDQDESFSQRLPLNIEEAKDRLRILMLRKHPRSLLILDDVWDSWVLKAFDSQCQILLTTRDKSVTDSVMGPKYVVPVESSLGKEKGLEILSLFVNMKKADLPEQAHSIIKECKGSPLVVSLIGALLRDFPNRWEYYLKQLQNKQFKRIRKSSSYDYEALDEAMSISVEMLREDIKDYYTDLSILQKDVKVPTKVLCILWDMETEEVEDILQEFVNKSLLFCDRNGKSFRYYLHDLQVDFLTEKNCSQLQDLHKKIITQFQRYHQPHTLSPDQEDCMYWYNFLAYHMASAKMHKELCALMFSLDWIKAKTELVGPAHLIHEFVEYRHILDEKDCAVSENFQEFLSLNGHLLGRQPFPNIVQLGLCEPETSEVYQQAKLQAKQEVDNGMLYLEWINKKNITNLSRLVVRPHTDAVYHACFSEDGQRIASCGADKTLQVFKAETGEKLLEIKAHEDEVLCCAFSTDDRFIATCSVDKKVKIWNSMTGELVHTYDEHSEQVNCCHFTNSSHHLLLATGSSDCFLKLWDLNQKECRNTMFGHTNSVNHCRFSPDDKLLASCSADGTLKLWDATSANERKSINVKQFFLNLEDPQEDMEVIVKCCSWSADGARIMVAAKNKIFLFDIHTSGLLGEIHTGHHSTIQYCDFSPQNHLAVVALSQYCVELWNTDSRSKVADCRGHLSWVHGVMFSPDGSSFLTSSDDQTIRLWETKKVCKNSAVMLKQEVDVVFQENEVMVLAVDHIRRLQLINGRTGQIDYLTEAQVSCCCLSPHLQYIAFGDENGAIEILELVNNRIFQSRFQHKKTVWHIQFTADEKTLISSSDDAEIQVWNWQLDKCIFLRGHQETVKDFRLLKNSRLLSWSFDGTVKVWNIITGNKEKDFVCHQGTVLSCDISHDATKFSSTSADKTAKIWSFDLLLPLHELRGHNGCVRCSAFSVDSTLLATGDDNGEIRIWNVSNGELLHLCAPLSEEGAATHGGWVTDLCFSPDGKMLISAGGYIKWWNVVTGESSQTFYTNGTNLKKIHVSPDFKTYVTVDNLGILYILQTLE
The data set is described as above. The method, then:
as §1

Sequence of fusion protein of the B42 trans-activation domain fused to XIAP (P98170 whole entry, the tested form may be a part): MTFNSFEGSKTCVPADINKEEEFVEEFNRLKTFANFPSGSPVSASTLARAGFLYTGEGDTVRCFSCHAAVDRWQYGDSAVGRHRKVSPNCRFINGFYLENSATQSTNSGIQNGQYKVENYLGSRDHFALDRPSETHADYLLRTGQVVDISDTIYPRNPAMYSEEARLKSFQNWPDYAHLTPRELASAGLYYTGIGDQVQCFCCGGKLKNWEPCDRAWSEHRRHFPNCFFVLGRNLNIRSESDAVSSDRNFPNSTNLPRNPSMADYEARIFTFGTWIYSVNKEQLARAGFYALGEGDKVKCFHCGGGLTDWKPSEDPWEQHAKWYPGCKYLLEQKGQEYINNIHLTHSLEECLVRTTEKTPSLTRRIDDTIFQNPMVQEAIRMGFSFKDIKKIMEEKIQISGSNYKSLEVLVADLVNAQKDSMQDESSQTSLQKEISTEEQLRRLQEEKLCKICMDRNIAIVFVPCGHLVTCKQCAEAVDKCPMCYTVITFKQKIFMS
Sequence of His-CKS1 (P61024 whole entry, looked up): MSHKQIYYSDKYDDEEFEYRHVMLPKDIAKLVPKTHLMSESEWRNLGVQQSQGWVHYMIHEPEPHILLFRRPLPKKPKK

In the case of immunoprecipitated cyclin B1/cdc2, the “histone H1 phosphorylation” value with His-CKS1 was “is phosphorylated in the added presence of His-Cks 1”.

B1: GST-CD40 cytosolic domain protein (other, UniProt P25942 216-277, looked up)
chain: KKVAKKPTNKAPHPKQEPQEINFPDDLPGSNTAAPVQETLHGCQPVTQEDGKESRISVQERQ
notes: domain: cytosolic domain; Negative control; also called GST-CD40 fusion protein; not shown: glutathione S-transferase (GST) fusion partner
As for B1, the binding result in data set [1] is reported as “no binding”.

B2: fusion protein of the LexA DNA-binding domain appended to the N-terminus of SBP1 (other)
chain: MKALTARQQEVFDLIRDHISQTGMPPTRAEIAQRLGFRSPNAAEEHLKALARKGVIEIVSGASRGIRLLQEEEEGLPLVGRVAAGEPLLAQQHIEGHYQVDPSLFKPNADFLLRVSGMSMKDIGIMDGDLLAVHKTQDVRNGQVVVARIDDEVTVKRLKKQGNKVELLPENSEFKPIVVDLRQQSFTIEGLAVGVIRNGDWLMEHYRKAGSVELPAPSPMPQLPPDTLEMRVRDGSKIRNLLGLALGRLEGGSARHVVFSGSGRAAGKAVSCAEIVKRRVPGLHQLTKLRFLQTEDSWVPASPDTGLDPLTVRRHVPAVWVLLSRDPLDPNECGYQPPGAPPGLGSMPSSSCGPRSRRRARDTRS
notes: Yeast two-hybrid construct expressed in yeast strain EGY48
Consider B2, for which the binding result in data set [2], in data set [3] and in data set [4] was “no binding” throughout.
